This experiment addresses Human IL-17RC:Fc (human) (UniProt Q8NAC3). The experiment is described as follows: SPR (BIAcore 3000), receptor:Fc captured by anti-human Fc, cytokine as analyte, koff/kon, 1:1 Langmuir fit.

Human IL-17A, sequence (Q16552 20-155 limits assumed): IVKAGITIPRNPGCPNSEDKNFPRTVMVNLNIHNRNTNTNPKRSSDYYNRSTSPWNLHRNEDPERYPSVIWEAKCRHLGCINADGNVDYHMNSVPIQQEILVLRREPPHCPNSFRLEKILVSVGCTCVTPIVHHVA

For the substance “Human IL-17A (from UniProt Q16552 20-155) (ligand)”, the Kd came out at 50 pM.
In turn, “Mouse IL-17F (from UniProt Q7TNI7 29-161) (ligand)” registered a Kd of 30 pM. Against the preceding substance, the Kd is about 1.7-fold lower.

The record behind these values is patent US20110008356A1.
